Values of other authors, collected in paper PMC9898751 (The Journal of Biological Chemistry, 2022).

B1: PHF2: KDM7 family Jumonji demethylase (protein, UniProt O75151 1-1096, looked up)
Lysine-specific demethylase …: MATVPVYCVCRLPYDVTRFMIECDACKDWFHGSCVGVEEEEAPDIDIYHCPNCEKTHGKSTLKKKRTWHKHGPGQAPDVKPVQNGSQLFIKELRSRTFPSAEDVVARVPGSQLTLGYMEEHGFTEPILVPKKDGLGLAVPAPTFYVSDVENYVGPERSVDVTDVTKQKDCKMKLKEFVDYYYSTNRKRVLNVTNLEFSDTRMSSFVEPPDIVKKLSWVENYWPDDALLAKPKVTKYCLICVKDSYTDFHIDSGGASAWYHVLKGEKTFYLIRPASANISLYERWRSASNHSEMFFADQVDKCYKCIVKQGQTLFIPSGWIYATLTPVDCLAFAGHFLHSLSVEMQMRAYEVERRLKLGSLTQFPNFETACWYMGKHLLEAFKGSHKSGKQLPPHLVQGAKILNGAFRSWTKKQALAEHEDELPEHFKPSQLIKDLAKEIRLSENASKAVRPEVNTVASSDEVCDGDREKEEPPSPIEATPPQSLLEKVSKKKTPKTVKMPKPSKIPKPPKPPKPPRPPKTLKLKDGGKKKGKKSRESASPTIPNLDLLEAHTKEALTKMEPPKKGKATKSVLSVPNKDVVHMQNDVERLEIREQTKSKSEAKWKYKNSKPDSLLKMEEEQKLEKSPLAGNKDNKFSFSFSNKKLLGSKALRPPTSPGVFGALQNFKEDKPKPVRDEYEYVSDDGELKIDEFPIRRKKNAPKRDLSFLLDKKAVLPTPVTKPKLDSAAYKSDDSSDEGSLHIDTDTKPGRNARVKKESGSSAAGILDLLQASEEVGALEYNPSSQPPASPSTQEAIQGMLSMANLQASDSCLQTTWGAGQAKGSSLAAHGARKNGGGSGKSAGKRLLKRAAKNSVDLDDYEEEQDHLDACFKDSDYVYPSLESDEDNPIFKSRSKKRKGSDDAPYSPTARVGPSVPRQDRPVREGTRVASIETGLAAAAAKLSQQEEQKSKKKKSAKRKLTPNTTSPSTSTSISAGTTSTSTTPASTTPASTTPASTSTASSQASQEGSSPEPPPESHSSSLADHEYTAAGTFTGAQAGRTSQPMAPGVFLTQRRPSASSPNNNTAAKGKRTKKGMATAKQRLGKILKIHRNGKLLL
B2: KIAA1718: KDM7 family Jumonji demethylase (protein, UniProt Q6ZMT4 1-941, looked up)
Lysine-specific demethylase 7A: MAGAAAAVAAGAAAGAAAAAVSVAAPGRASAPPPPPPVYCVCRQPYDVNRFMIECDICKDWFHGSCVGVEEHHAVDIDLYHCPNCAVLHGSSLMKKRRNWHRHDYTEIDDGSKPVQAGTRTFIKELRSRVFPSADEIIIKMHGSQLTQRYLEKHGFDVPIMVPKLDDLGLRLPSPTFSVMDVERYVGGDKVIDVIDVARQADSKMTLHNYVKYFMNPNRPKVLNVISLEFSDTKMSELVEVPDIAKKLSWVENYWPDDSVFPKPFVQKYCLMGVQDSYTDFHIDFGGTSVWYHVLWGEKIFYLIKPTDENLARYESWSSSVTQSEVFFGDKVDKCYKCVVKQGHTLFVPTGWIHAVLTSQDCMAFGGNFLHNLNIGMQLRCYEMEKRLKTPDLFKFPFFEAICWFVAKNLLETLKELREDGFQPQTYLVQGVKALHTALKLWMKKELVSEHAFEIPDNVRPGHLIKELSKVIRAIEEENGKPVKSQGIPIVCPVSRSSNEATSPYHSRRKMRKLRDHNVRTPSNLDILELHTREVLKRLEMCPWEEDILSSKLNGKFNKHLQPSSTVPEWRAKDNDLRLLLTNGRIIKDERQPFADQSLYTADSENEEDKRRTKKAKMKIEESSGVEGVEHEESQKPLNGFFTRVKSELRSRSSGYSDISESEDSGPECTALKSIFTTEESESSGDEKKQEITSNFKEESNVMRNFLQKSQKPSRSEIPIKRECPTSTSTEEEAIQGMLSMAGLHYSTCLQRQIQSTDCSGERNSLQDPSSCHGSNHEVRQLYRYDKPVECGYHVKTEDPDLRTSSWIKQFDTSRFHPQDLSRSQKCIRKEGSSEISQRVQSRNYVDSSGSSLQNGKYMQNSNLTSGACQISNGSLSPERPVGETSFSVPLHPTKRPASNPPPISNQATKGKRPKKGMATAKQRLGKILKLNRNGHARFFV

How the values were obtained:
[1] = system: histone peptide bearing H3K4me3 and H3K9me2 in cis; details: in contrast to PHF8; ref [28]
[2] = system: peptide substrates; details: mass spectrometry– and fluorescence-based demethylase assays on peptide substrates; ref [28]
[3] = phosphorylation by protein kinase A; ref [29]
[4] = system: H3K9me2; details: H3K4me3 present in cis; ref [35]
[5] = system: H3K27me2; details: H3K4me3 present in cis; ref [35]

Molecule | activity on single histone peptide bearing H3K4me3 and H3K9me2 in cis [1] | enzymatic activity in vitro [2] | activity before phosphorylation [3] | activity on H3K9me2 with H3K4me3 in cis [4] | activity toward H3K27me2 with H3K4me3 in cis [5]
B1 | cannot act on a single histone peptide bearing H3K4me3 and H3K9me2 in cis | enzymatically inactive in vitro | remains inactive until it is phosphorylated by protein kinase A | – | –
B2 | – | – | – | inactive on H3K9me2 when H3K4me3 is present in cis | more selective toward H3K27me2
